Data taken from patent US11572568B2, “Regulating alkaloids” (22nd Century Limited, LLC, priority 2006, dated 2023).

How the values were obtained:
[1] = target: T1, Recombinant tobacco MPO1 (Nicotiana tabacum, UniProt A0A1S4BDC4); conditions: for V/K: substrate of recombinant tobacco MPO1
T1 sequence (A0A1S4BDC4 1-790): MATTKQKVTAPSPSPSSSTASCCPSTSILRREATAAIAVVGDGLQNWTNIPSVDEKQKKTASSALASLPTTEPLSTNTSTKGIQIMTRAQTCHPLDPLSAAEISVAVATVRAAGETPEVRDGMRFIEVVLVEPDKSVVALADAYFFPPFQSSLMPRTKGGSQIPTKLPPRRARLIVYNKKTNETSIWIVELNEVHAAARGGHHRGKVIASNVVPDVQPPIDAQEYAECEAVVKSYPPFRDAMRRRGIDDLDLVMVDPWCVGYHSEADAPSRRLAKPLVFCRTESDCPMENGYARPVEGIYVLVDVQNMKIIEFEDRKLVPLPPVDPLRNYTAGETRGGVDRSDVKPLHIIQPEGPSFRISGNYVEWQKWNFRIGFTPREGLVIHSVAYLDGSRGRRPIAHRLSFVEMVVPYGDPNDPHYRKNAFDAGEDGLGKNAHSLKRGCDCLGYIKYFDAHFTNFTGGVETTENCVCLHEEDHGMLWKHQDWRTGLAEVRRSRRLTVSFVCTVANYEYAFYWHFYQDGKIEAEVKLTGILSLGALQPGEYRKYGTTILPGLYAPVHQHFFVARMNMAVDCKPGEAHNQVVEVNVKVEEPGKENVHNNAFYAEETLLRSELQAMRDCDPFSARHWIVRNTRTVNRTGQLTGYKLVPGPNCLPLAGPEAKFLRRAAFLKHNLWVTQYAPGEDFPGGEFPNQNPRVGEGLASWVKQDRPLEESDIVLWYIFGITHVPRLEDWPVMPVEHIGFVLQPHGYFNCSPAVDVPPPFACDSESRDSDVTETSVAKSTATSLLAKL
Description: The PCR product was first cloned into a pGEM-T Easy vector (Promega), then excised as the EcoRV-Not1 fragment, and finally cloned into the expression vector pGEX-6P (GE Healthcare). The resultant plasmid pGEX-MPO1 was introduced into the E. coli strain Rosetta (DE3) (Novagen). The recombinant bacteria were cultured in LB medium containing 50 μg/ml carbenicillin at 37° C. until the OD600 of the culture reached 0.4, IPTG and CuSO4 were added to the culture to the final concentrations of 0.1 mM and 4 mM, respectively, and the cultures were incubated at 16° C. for 16 h. Bacteria were harvested by centrifugation, suspended in a PBS buffer containing 10 mM DTT and 1 mg/ml lysozyme, incubated at 4° C. for 2 h, and then sonicated for 3 min. After centrifugation of the homogenate, the recombinant MPO1 protein fused to GST was purified from the supernatant by GSTrap HP (GE Healthcare) according to the manufacturer's protocol.

[2] = target: T2, Pig kidney diamine oxidase (Sus scrofa, UniProt Q9TRC7); conditions: in words
T2 sequence (Q9TRC7 25-755): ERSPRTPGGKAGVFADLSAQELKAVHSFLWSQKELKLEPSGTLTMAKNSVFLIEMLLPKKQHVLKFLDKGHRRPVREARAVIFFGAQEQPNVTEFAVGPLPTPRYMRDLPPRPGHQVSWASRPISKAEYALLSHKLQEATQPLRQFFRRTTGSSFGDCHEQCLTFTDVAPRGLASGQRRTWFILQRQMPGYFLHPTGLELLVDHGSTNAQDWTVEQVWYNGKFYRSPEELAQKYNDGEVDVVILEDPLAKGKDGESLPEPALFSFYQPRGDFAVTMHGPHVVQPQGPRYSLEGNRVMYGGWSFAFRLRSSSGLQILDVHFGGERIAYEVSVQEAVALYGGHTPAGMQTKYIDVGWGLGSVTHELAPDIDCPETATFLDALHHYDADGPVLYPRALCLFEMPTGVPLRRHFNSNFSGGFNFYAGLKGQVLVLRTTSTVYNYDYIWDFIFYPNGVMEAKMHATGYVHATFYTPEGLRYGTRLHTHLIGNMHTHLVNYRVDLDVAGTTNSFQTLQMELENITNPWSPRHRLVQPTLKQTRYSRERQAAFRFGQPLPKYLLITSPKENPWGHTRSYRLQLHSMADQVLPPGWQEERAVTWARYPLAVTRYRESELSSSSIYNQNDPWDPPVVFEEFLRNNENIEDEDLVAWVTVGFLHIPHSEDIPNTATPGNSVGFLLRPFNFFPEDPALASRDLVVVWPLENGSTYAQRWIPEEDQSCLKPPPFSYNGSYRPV
Description: (§1) Purified diamine oxidase from pig kidney was purchased from Sigma. Enzyme activities were calculated by data analysis software, Kaleida Graph (HULINKS).

[3] = test system: NCCCCCN; assay: purified protein, by the assay type; conditions: other: substrate of recombinant tobacco MPO1 (GST fusion, purified from E. coli)
Description: as §1

[4] = test system: NCCCN; assay: purified protein, by the assay type; conditions: other: substrate of recombinant tobacco MPO1 (GST fusion, purified from E. coli)
Description: as §1

[5] = substrate: NCCCCN; assay: purified protein, by the assay type; conditions: other: substrate of purified pig kidney diamine oxidase (Sigma)
[6] = substrate: NCCCCCN; assay: purified protein, by the assay type; conditions: other: substrate of purified pig kidney diamine oxidase (Sigma)
Description: as §1

[7] = substrate: CNCCCCN; assay: purified protein, by the assay type; conditions: other: substrate of purified pig kidney diamine oxidase (Sigma)
Description: as §1

CCCCN [n-Butylamine]
Km ([1]; substrate of recombinant tobacco MPO1 (GST fusion, purified from E. coli)): 249 ± 180 µM

NCCCCN [Putrescine]
substrate preference [2]: preferred putrescine over N-methylputrescine | V/K [1]: 3600

CNCCCN [N-Methyl-1,3-diaminopropane]
V/K [1]: 13000

Recombinant tobacco MPO1 (Nicotiana tabacum)
Km [3]: 362 ± 320 µM | Km [4]: 158 ± 100 µM

B1: Pig kidney diamine oxidase (Sus scrofa) (protein)
chain: T2 sequence (Q9TRC7 25-755)
Km [5]: 228 ± 90 µM | Km [6]: 915 ± 420 µM | Km [7]: 657 ± 240 µM
